Measured values published in the domain aggregation screens of Martell et al. (2025).

Assay: soluble fraction after stress (log2 fold change); higher = more stays soluble; pooled small domains, quantitative proteomics
Conditions: stress: 50 degC
Outline: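 Each library was heated to 50°C as a stress step. The libraries, made up of small protein domains, were pooled and analysed at high throughput by quantitative proteomics. The reported value is the base-two logarithm of the fold change in each protein's soluble amount after stress, taken as a measure of aggregation propensity. The higher the value, the more protein stays in solution.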
For “HMTTVRLNATVPPELALQRLDRVARELFPEYSRNRLQQWIRSGELLVNGSPSGVRDKVPLGAELAVAANLE”, the “soluble fraction (log2)” value was -0.416.
With “HMTTVSINTTGIITASTIRASSALYPPLYTTVQRDAGTFSAGAIIFNSTTSKLEFYDGTTWQSLPG” the “soluble fraction (log2)” value was -0.106.
With “HMTTVTVGSKVRVKAGATFSDGAKPFAEVYNTVYDVQLLSHNGKEARIGIGDQWTGWIYISDLYLANQPAP” the “soluble fraction (log2)” value was -0.102.
With “HMTVEMYIGKTANVLETVTENNGRIAIFGEEWQAKSLNGETIEKGAQAKIVKNDSIIMYVVPI” the “soluble fraction (log2)” value was 0.0967.
In the case of “HMTVGENTYELIKKDIIFGVLPPLKKLKLQELKKIYNASVSTLREILSRLTGDGFVFSEEQKGFYVSPV”, the “soluble fraction (log2)” value was 0.00444.
With “HMTVKEVGYDTFLTMLDKKEIKQVQVEDNQIIFSDNADPVNYYKTGVFNDPDLVNRLQDAGVEFG” the “soluble fraction (log2)” value was 0.312.
For “HMTVKEYNRAVDEYSDAVWRFIRGNLRDEDRANDIVQDSFEKLWMHVTEIDYSVAKSWLFSTAYNNMIDI”, the “soluble fraction (log2)” value was -0.277.
With “HMTVKKLTINEDNSGRRIDNYLLSIFNSLPRSKIYNIIRKGEVRVNSSRIKPNYRLEQGDLVRIPPNLEFT” the “soluble fraction (log2)” value was 0.0953.
With “HMTVKRNLVQEILRLKFRHPENFMPNRAFYQEVGINQMRWWDIFYGRKNINQEEYIALSKYF” the “soluble fraction (log2)” value was -0.237.
For “HMTVLPTEQDAKALVGLGEEEAAKIVEGNGWTYRIGSRDGEQFMLTEDFVTSRLTLGIEKAIVMTATI”, the “soluble fraction (log2)” value was -0.915.
With “HMTVLSKEEFVAIEQRLLQLLGTAPVDNKILLQQLSGIKKEKAWKVLSFLQAENKIGMDATGRVYL” the “soluble fraction (log2)” value was -0.439.
With “HMTVPDVKGMGARDAVFLLETLGFKVRINGIGQVYEQSIDPGKSYSKGEFISLRL” the “soluble fraction (log2)” value was -0.51.
In the case of “HMTVPNVVGQRILAAQDILKNLGLKVLVDTNLPNSQWGLRNVKSTNPGAGAVVRVGDTVTLIAR”, the “soluble fraction (log2)” value was 0.0114.
With “HMTVPTEVALELMHATALEDNEQRILYIASFKEKHREHLHATIEVDGQEVTLARYADLVATGAYL” the “soluble fraction (log2)” value was -0.505.
With “HMTVSADIIQKIIKTSTTDENIITIDSISNSISKLALSKITAEDIIEILEASSLVLRNSNGSWTVL” the “soluble fraction (log2)” value was -0.617.
For “HMTVSKLKVINYTIRNGDSLWTISRKFNVTVDKVKEWNGLSDRTLLQPGQKLTLYVDPTIQISH”, the “soluble fraction (log2)” value was -0.0925.
With “HMTVSLLQTRQRLQALADLGHYKGDLGAAWGPDAIEALKKAQATLGVTVDGKWGPQTEDAIQVALKVQ” the “soluble fraction (log2)” value was -0.284.
For “HMTVTISPGYEGRLLRSYLKNTLSLSTSALARLKTREDGITVNGVRVTVRYVLHAGDLLQLAVD”, the “soluble fraction (log2)” value was -0.597.
With “HMTVVHRQVHLQPDQGAFRAALYSHKAVLSEQTDDQGAINLEIRLPESDFLRLLNSSGLKLQDLVP” the “soluble fraction (log2)” value was -0.0198.
For “HMTVVSVDDQASASSEAIRTKVAGDSAARMSVDAGGKITWGAGSASGDVTLYRSAANTLKTDDTLVAT”, the “soluble fraction (log2)” value was -0.0266.
For “HMTYADTRDLLIRRGMELLTEQGIAATSIERVLQSTGIPKGSFYHYFATKHDFTLAVMDAYHHY”, the “soluble fraction (log2)” value was -0.0315.
In the case of “HMTYAQQIGARIAFLRRLKGLTLAELAERVNKHKSTISKYESGQIIIDIESLKEVADALGVDVAQIVE”, the “soluble fraction (log2)” value was -0.0214.
For “HMTYFDIAPELLTVYKEINDIPRDINQIVRKTGLSINEVSYKTMILQLEDKIVELPGQRFIRNS”, the “soluble fraction (log2)” value was -1.99.
For “HMTYKHLTIDEMKRFLSTREDSQSALVQFARVENVVGNRKGKYAVIKKWFLKNYKEEYNAFLS”, the “soluble fraction (log2)” value was -0.17.
With “HMTYPGSIALVNPKHEAFVQHYVATSGSRGQAAKLAGVTTTTARNLLQDVEATARIRYLNAQQFQ” the “soluble fraction (log2)” value was -0.107.
For “HMTYTGTVTGVDEGGLRVRSSTSTENTSNVITKVYTGDTFDVLDTVYNGSAKWYKIGFTYNGTYTYGYVSA”, the “soluble fraction (log2)” value was -1.17.
With “HMTYVSVSNYIGTNVDKAKGELESQGLVVLLEEQKTEDKSQDGMVLKQTIEGGTKVSSGSRITLIYGRYT” the “soluble fraction (log2)” value was 0.197.
For “HMVADEGELLAIAREVVAANPKVFEDWKAGKQSAAQWFVGQIMKRTRGRANPQLALKLVTQALEEHAR”, the “soluble fraction (log2)” value was 0.0775.
For “HMVAEKSKIEMAIDSINKLAKELADSGVAKKTISDIIKSVSGSANYNKITDFEVATDVYKELVALKNKEDT”, the “soluble fraction (log2)” value was 0.384.
With “HMVAESGLPPAFRSTWRHIMQTRGAQLDVLAMRTGTDAASLQKQLHAMELGGWVRRMPGGWYVPLK” the “soluble fraction (log2)” value was -0.736.
In the case of “HMVAFYATPKERGIYDDAETYREGDIVSIADGSRWIYVNPTATAGNDPADGSVYWERMSGAATGP”, the “soluble fraction (log2)” value was 0.0147.
For “HMVAGHLQEKKGYFYMVLTYRDHEGKRKSKWLPTGLTIKGNKKRAQDLLQDARKNFVPDIPT”, the “soluble fraction (log2)” value was -1.32.
In the case of “HMVAGHLQEKNGYFYIVLNYTNHEGKRKSKWITTGLTVKGNKKRAQDLLQEARKTFVPDIPT”, the “soluble fraction (log2)” value was -1.19.
For “HMVAPKDIVMPSFVGKKYTDVVNTPNSSYTFEFKKDEKNSSDYAVGFIMDQKPKAGETVKSNATVTLIVSK”, the “soluble fraction (log2)” value was -0.0152.
With “HMVAPNSEATTKLIIEKTKYANESPAILMGFKATATMLMAKHVVLPTSKYAYFNEGRALLEKAIK” the “soluble fraction (log2)” value was -0.0203.
With “HMVAREAYTTQNLTDVFSISRQAVEKRAKREGWQSVPRKGRGGGKLWVVSSMPAETRDLLASLLLRK” the “soluble fraction (log2)” value was -0.609.
With “HMVDALYGQGARVMRDFSEGSGIVKLDNGETWTGRLSPAASGASLYVGDRVIVTRIDGAIAEVTPP” the “soluble fraction (log2)” value was -0.0539.
For “HMVDDNFGLGEVTDQNYLTVLGRALDLIGWTDEQADSYSLKTFGVPHWDELGRSQAEKLVAHLIGLLKEQM”, the “soluble fraction (log2)” value was -0.33.
In the case of “HMVDIEQAEFLSRQFDLLLARLDDPTIEWQDIADIRSEYTGENEHRDTIRKGSKLFYEYLQAGWIKN”, the “soluble fraction (log2)” value was -0.748.
With “HMVDISLSDRELEVLRLLAMGLSNADISRRLYLSEGTIRNYMSGIFSKLNVSDRTQAVVIALREGLVNL” the “soluble fraction (log2)” value was -0.48.
With “HMVDPAEASKRAREYLDALPADDLKDVIRQFSATLAEGSVVLGYFQRSGLKSKVVKTALEQFVASTILSK” the “soluble fraction (log2)” value was -0.167.
For “HMVDPAFLAWQQKPENTWFGTDRRKTALAIAIAEEIRNDPANSNLVGAAFYARVAEETEETLN”, the “soluble fraction (log2)” value was -0.628.
For “HMVDPWLEQVHRASAAYATAHGSARIPTTHPDLGWKVVRVRQRHRKGLLSDEWVAKFEALPGWTWEPK”, the “soluble fraction (log2)” value was -0.282.
With “HMVDQAFQTQLKNIQARTGKNLDELYAFIRASGLVKHGEIRDLAKRELSLGHGDANTLAKFYLESLAAAA” the “soluble fraction (log2)” value was 0.269.
In the case of “HMVDQKLIQASAEHSGIRIDRFLSEQLPEHSRSYIQKLIKDGQVSIGGKAVKSNYKIAGTEEISLLIPDQ”, the “soluble fraction (log2)” value was 0.0523.
With “HMVDTSDLPAIVEKVFADNPEQVNDILNGKDRVKGFLVGQIMKATRGQAPPDEVNKLIDATLEKMKAA” the “soluble fraction (log2)” value was 0.0819.
For “HMVDYIGRRGVMLSTVSEEKMGNAEVVIDGNSYNIYVKSLDGSTIAYHQEILIINKSKDNNYFLVQIY”, the “soluble fraction (log2)” value was -2.63.
With “HMVEAIDQALIEKQIQAVLQENSAAVKKYQAGKTEVLAFLIGQSMRKIAKKVDANLVKNILLEQLKNK” the “soluble fraction (log2)” value was 0.0542.
For “HMVEDFSEVLLQYIREQGGAIALNDKTDAGVIYDTFGVSKKTFKKAVGDLYKKRLIVLGDEGIRLA”, the “soluble fraction (log2)” value was -0.619.
In the case of “HMVEIGENIKKLRKAKRMTQKEVANQLNVTPQTISKWERNISYPDLDMLVKLSQLFHISTDALL”, the “soluble fraction (log2)” value was -0.0765.
For “HMVELNDNEKIVYDILKETEKIHIDELTAKVQLTQSILSGALVQMEMKGMIVSLPGKMYKLL”, the “soluble fraction (log2)” value was -0.132.
In the case of “HMVELRDGSLPLARGSVGDLVAEVQRKLGVAADGIFGPQTERAVRAFQARAGLASDGIVGPLTWSALFGA”, the “soluble fraction (log2)” value was -0.282.
In the case of “HMVELVKVPALQGETVDEAIADIKDAGLEPGQVRYVESDLPKDTVTYQSVDAGEQVKAGTVINLQASKGP”, the “soluble fraction (log2)” value was 0.251.
With “HMVEMSNMELVREQYFQNLIYNVGDWVKDSKTEITGEVVKRGTNYLTIVQEDFTLHKVWLEDAESME” the “soluble fraction (log2)” value was -0.581.
For “HMVEPDELTEREREVLQFVARGLSNKEIGAALALSPHTIKAHLRSILDKLHLRSRAEAAAWAVRSGLS”, the “soluble fraction (log2)” value was -0.143.
With “HMVEPLIVRNFSINYADIDKLETKIKDYISNSDKSGVNRGRVTSDTRTNMLIVTETASKLAQVEQLLKALD” the “soluble fraction (log2)” value was -0.181.
In the case of “HMVEPTDFTYLKAEVETAKALKQADYTVATWKSFAGELAEAEEVIAKTDASQAEVNEALSHLQAAEKELV”, the “soluble fraction (log2)” value was 0.175.
In the case of “HMVETDQESSLIQAIYKYFEITGDNTFFDEKVGEKTVADRMEWAMDYLIQNRFSEEYGLIWGA”, the “soluble fraction (log2)” value was -0.2.
In the case of “HMVFADRLRALRKKSGLTQDEFSKQTGIGRSAVGMYESGKREPNYTTLSKVARFYHVSTDYLLGRTDTP”, the “soluble fraction (log2)” value was -1.04.
For “HMVFQTAAEKAYEIISKKIMKGEYEPGMRLVRRQLAQELGVSPIPILEAMKRLEQDGLIEYKAHWGSIVTI”, the “soluble fraction (log2)” value was -1.97.
For “HMVFRFELQPSSATPLYRQIVEQVTRAVAAGVLRDGEELPSVRAVAQEYVINPMTVSKAYSLLEAQSI”, the “soluble fraction (log2)” value was -0.349.
With “HMVFSNLGSRGEEVRQIQTKLKELGYLQGNVDGIYGNQTKQAVTAFQRDHGLSADGIAGEKTLAALGIG” the “soluble fraction (log2)” value was 0.315.
For “HMVGAEDISKPMNLGALMRTAHAFGASFFFTINAHPKVRHAYNSDTSRSFDHMPYYPWDTMEE”, the “soluble fraction (log2)” value was 0.129.
For “HMVGDLPPQELRVFELIGDGLSNREIADEMILAEKTIKNYVTSLLQKLGMQRRTEAAAFAARLDER”, the “soluble fraction (log2)” value was -0.0396.
In the case of “HMVGDMLTQKDSEGLTAYLYQQGIISQREMLLLNGILKDRVLTGMEKGQRDSVRASMVQHLLAMLNMM”, the “soluble fraction (log2)” value was -0.848.
With “HMVGEQISYIPLKFATASEVVKSLTSMFQQQKGIAPIRIVAEERTNAILLLASEADTARVKNLIAMMDKGV” the “soluble fraction (log2)” value was -0.0246.
In the case of “HMVGGIAIGQFNVPRGSVKVTAGGRLLQEGLDYTVNYQAGRVQILDESLKNSNVPIEISTESNS”, the “soluble fraction (log2)” value was 0.229.
With “HMVGMDRYFKIKNIKDSSAAFERDYILHFLKENDWMVSKTAQMIGLERTTLYKKIKQLGLASMLEN” the “soluble fraction (log2)” value was -2.85.
In the case of “HMVGQIISNARKQEKMTQSELAEKVGTNKTYISRIEKGVIEPGVGLFFRIIDALGLKIEIVKP”, the “soluble fraction (log2)” value was -1.25.
